In publication PMC7612939:

Molecular target: TCRβ chain of the 5c.c7 TCR (Vβ3) (mouse (T-cells of 5c.c7 TCR transgenic mice))
Test: FRET or BRET

For “CD3ε (from UniProt P22646 22-189) (natural protein)”, the FRET yield was 25%.
